# Data reported in patent US20190105401A1.
# Biological target: Hsp60 (chaperonin 60) of human Caco-2 cells (human) (UniProt P10809)
# Experiment: cell-based or functional assay
# Sequence of Hsp60 (chaperonin 60) of human Caco-2 cells (human) (P10809 27-573): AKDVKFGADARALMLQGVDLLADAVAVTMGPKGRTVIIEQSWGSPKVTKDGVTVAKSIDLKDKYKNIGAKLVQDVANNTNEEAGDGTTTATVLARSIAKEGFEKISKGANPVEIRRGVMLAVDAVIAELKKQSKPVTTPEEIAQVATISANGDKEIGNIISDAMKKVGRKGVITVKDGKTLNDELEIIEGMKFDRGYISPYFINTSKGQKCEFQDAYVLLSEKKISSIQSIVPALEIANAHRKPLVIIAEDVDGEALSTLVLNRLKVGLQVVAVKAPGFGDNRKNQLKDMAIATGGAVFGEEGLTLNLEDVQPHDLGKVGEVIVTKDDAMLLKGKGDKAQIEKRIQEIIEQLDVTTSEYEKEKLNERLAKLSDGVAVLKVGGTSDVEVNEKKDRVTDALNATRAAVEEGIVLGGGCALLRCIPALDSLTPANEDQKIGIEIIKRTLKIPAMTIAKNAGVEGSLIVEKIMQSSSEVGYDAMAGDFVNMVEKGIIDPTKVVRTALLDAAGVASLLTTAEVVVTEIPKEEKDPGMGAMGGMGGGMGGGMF
substance,measurement,value
Listeria adhesion protein (LAP) on L. monocytogenes F4244 (WT) bacteria (ligand),"IKK-β protein expression level, shRNA vector control Caco-2 cells infected with the WT strain, increase over uninfected",54%
same,"p65 protein expression level, shRNA vector control Caco-2 cells infected with the WT strain, increase over uninfected",62%
